The results in this text go back to patent US20210236667A1.

Where two headings read alike, the source gives them in different places.

The target of assay [1] is Human epidermal growth factor receptor (EGFR) (human) (UniProt P00533). The experiment in a line: flow cytometry saturation binding on MDA-MB-468 cells.
Assay [2] has the same target. Kind of assay: flow cytometry on MDA-MB-468 cells. A general note: A flow cytometer gives signals particle by particle.
Assay [3] shares this target. Kind of assay: immunoreactive fraction (Lindmo) assay on MDA-MB-468 cells.
For assay [4] the target is unchanged. Kind of assay: saturation radioligand binding assay on MDA-MB-468 cells.
Assay [5] shares this target. The experiment in a line: flow cytometry on MDA-MB-468 cells. The source holds these as a separate data set.
The target is the same in assay [6]. Kind of assay: competitive radioligand binding on MDA-MB-468 cells pre-blocked with 100-fold excess of unlabeled 8709-scFv-Fc; ^225Ac-8709-scFv-Fc at 50 nM.

B1: 8709-scFv-Fc-PEG6-DM1 (scFv, part only; not given: scFv linker, hinge and Fc, V domains shown, not shown: another chain or arm of the molecule; a dimerising Fc or GST; small tags and cut ends)
VH: EVQLVESGGGLVQPGGSLRLSCAASGFNLYSSSMHWVRQAPGKGLEWVASIYPYSGYTYYADSVKGRFTISADTSKNTAYLQMNSLRAEDTAVYYCARYPFGVSAYYAMDYWGQGTLVTVSS
VL: DIQMTQSPSSLSASVGDRVTITCRASQSVSSAVAWYQQKPGKAPKLLIYSASSLYSGVPSRFSGSRSGTDFTLTISSLQPEDFATYYCQQSYWLITFGQGTKVEIK
modifications: PEG6-DM1 coupled via DM1-PEG6-NHS, drug to antibody ratio 3.5; attachment sites not stated.
With B1, the Kd (in general, a measure of binding affinity in units of concentration) in assay [1] amounted to 4.2 nM. In addition, the % binding in assay [2] is more than 90%.

B2: ^225Ac-8709-scFv-Fc (scFv, part only; not given: scFv linker, hinge and Fc, V domains shown, not shown: another chain or arm of the molecule; a dimerising Fc or GST; small tags and cut ends)
VH: B1 VH
VL: B1 VL
modifications: Macropa chelator (coupled via macropa-NCS) carrying ^225Ac; attachment sites not stated.
In assay [3], B2 had an immunoreactive fraction of 0.86. The molecule further displayed a Kd in assay [4] of 14.5 nM.

B3: Macropa-8709-scFv-Fc (scFv, part only; not given: scFv linker, hinge and Fc, V domains shown, not shown: another chain or arm of the molecule; a dimerising Fc or GST; small tags and cut ends)
VH: B1 VH
VL: B1 VL
modifications: Macropa chelator coupled via macropa-NCS, not radiolabeled; attachment sites not stated.
On to B3, for which the % binding in assay [5] was more than 85%. In assay [1], this molecule had a dissociation constant Kd of 11.3 nM and a fold higher KD as compared to 8709-scFv-Fc of 10.4 fold. In assay [2], this molecule yielded a % binding of more than 90%.

B4: 8709-scFv-Fc (scFv, part only; not given: scFv linker, hinge and Fc, V domains shown, not shown: another chain or arm of the molecule; a dimerising Fc or GST; small tags and cut ends)
VH: B1 VH
VL: B1 VL
As for B4, the Kd in assay [1] is 1.1 nM. This molecule also gave a fold reduction in the binding of ^225Ac-8709-scFv-Fc to EGFR in assay [6] of 23.2 fold. The molecule also gave a % binding in assay [2] of more than 90%.
